Here are results for 2 molecules from PMC11077590, “The concerted action of SEPT9 and EPLIN modulates the adhesion and migration of human fibroblasts” (Life Science Alliance, 2024).

Assay [1] addresses T1, His6-SEPT9 ΔNΔC (G domain, aa 295-567) (UniProt Q9UHD8 295-567).
T1 construct: also called ΔNΔC-SEPT9; source: E. coli BL21DE3, purified (HisTrap IMAC, buffered in PBS by PD10)
T1 sequence (looked up): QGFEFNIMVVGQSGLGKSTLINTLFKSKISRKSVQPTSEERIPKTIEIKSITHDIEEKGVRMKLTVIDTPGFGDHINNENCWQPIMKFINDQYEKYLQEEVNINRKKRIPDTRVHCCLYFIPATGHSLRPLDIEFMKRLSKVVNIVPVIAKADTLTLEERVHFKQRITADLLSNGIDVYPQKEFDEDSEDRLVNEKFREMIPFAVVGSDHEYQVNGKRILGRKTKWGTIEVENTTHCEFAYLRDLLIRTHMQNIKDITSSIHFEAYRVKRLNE
Nature of the assay: pull-down; GST fusion from E. coli extract held on glutathione Sepharose beads, washed with PBS, blocked with 1.5 μM BSA; purified His6-tagged protein added at 1.5 μM for 30 min in PBS with 0.1 mM Zn2+; eluted with 10 mM reduced glutathione; SDS-PAGE and Western blot. The following applies: both partners purified.

For assay [2], the target named is T2, GST-EPLIN (full length, isoform alpha) (UniProt Q9UHB6-2 1-599).
T2 construct: EPLIN (epithelial protein lost in neoplasm, LIMA1 product), isoform alpha, full length; ORF amplified from Addgene plasmid #40928; numbers count on: isoform alpha; Vector pGEX2T; All EPLIN constructs derive from plasmid #1 (isoform alpha); also called epithelial protein lost in neoplasm; LIMA1 product
Described as above. The following applies: both partners purified.

T2 sequence (Q9UHB6 161-759): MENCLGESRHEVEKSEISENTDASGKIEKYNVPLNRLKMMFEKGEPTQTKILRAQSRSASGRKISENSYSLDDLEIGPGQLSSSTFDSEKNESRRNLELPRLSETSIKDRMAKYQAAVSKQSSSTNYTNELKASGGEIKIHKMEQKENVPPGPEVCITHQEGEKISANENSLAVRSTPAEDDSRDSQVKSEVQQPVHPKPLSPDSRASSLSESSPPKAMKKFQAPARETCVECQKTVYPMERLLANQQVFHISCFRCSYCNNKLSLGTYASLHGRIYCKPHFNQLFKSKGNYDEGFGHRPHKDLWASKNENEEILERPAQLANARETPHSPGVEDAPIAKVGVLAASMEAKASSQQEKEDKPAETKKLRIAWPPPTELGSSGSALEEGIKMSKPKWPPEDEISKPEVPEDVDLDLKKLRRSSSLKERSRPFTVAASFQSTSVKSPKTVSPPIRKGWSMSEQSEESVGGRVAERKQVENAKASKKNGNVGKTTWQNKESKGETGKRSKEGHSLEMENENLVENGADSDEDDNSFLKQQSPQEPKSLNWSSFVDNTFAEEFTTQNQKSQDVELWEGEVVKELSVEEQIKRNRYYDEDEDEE

B1: GST-EPLIN LIM (aa 228-288) (domain or fragment)
chain: not shown
notes: EPLIN (LIMA1 product), isoform alpha, residues 228-288, the LIM domain; Vector pGEX2T; also called isolated LIM domain of EPLIN; plasmid #7
On to B1, for which the binding result in assay [1] is listed as “binds”.

B2: His6-SEPT9 (full length, SEPT9i1) (natural protein, UniProt Q9UHD8 1-586, looked up)
chain: MKKSYSGGTRTSSGRLRRLGDSSGPALKRSFEVEEVETPNSTPPRRVQTPLLRATVASSTQKFQDLGVKNSEPSARHVDSLSQRSPKASLRRVELSGPKAAEPVSRRTELSIDISSKQVENAGAIGPSRFGLKRAEVLGHKTPEPAPRRTEITIVKPQESAHRRMEPPASKVPEVPTAPATDAAPKRVEIQMPKPAEAPTAPSPAQTLENSEPAPVSQLQSRLEPKPQPPVAEATPRSQEATEAAPSCVGDMADTPRDAGLKQAPASRNEKAPVDFGYVGIDSILEQMRRKAMKQGFEFNIMVVGQSGLGKSTLINTLFKSKISRKSVQPTSEERIPKTIEIKSITHDIEEKGVRMKLTVIDTPGFGDHINNENCWQPIMKFINDQYEKYLQEEVNINRKKRIPDTRVHCCLYFIPATGHSLRPLDIEFMKRLSKVVNIVPVIAKADTLTLEERVHFKQRITADLLSNGIDVYPQKEFDEDSEDRLVNEKFREMIPFAVVGSDHEYQVNGKRILGRKTKWGTIEVENTTHCEFAYLRDLLIRTHMQNIKDITSSIHFEAYRVKRLNEGSSAMANGMEEKEPEAPEM
notes: derived from plasmid #5 (EGFP-SEPT9, gift of E. Spiliotis); pES is an in-house pET15A-based plasmid for His6-tagged proteins; also called His-SEPT9; purified SEPT9; source: E. coli BL21DE3, purified (HisTrap IMAC, buffered in PBS by PD10)
B2: the binding result in assay [2] was “binds”.
